Assays:
[1] = target: T1, cyno CD46 expressed on 293 cells (cynomolgus); assay: FACS, 293 cells expressing cyno CD46; EC50 at pH 7.4 over EC50 at pH 6.0
T1 construct: whole, on cells; The construct on the cells is not described; also called HEK 293 cells expressing cyno CD46
Procedure: (§1) A similar FACS analysis was also carried out using 293 cells expressing cyno CD46. […] The EC50 values for binding to the 293 cells expressing cyno CD46 by the conditionally active anti-CD46 antibodies are summarized in Table 6.

[2] = target: T2, recombinant cyno CD46 antigen (cynomolgus, UniProt A0A2K5WCL8 35-328); assay: ELISA, coated cyno CD46; EC50 at pH 7.4 over EC50 at pH 6.0
T2 construct: extracellular domain; Plate-coated antigen of the ELISA; also called cynomolgus CD46 extracellular domain
T2 sequence: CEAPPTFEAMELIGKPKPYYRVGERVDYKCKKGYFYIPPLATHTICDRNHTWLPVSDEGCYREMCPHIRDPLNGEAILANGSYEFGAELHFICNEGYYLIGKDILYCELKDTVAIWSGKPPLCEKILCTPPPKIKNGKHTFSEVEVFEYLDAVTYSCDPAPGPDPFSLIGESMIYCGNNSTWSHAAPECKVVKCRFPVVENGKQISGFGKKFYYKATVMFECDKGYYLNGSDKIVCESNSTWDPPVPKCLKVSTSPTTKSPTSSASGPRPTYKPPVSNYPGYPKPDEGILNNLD
Procedure: The binding activities of conditionally active anti-CD46 antibodies to cyno CD46 were measured by ELISA and are shown in FIGS. 3-4. The EC50 values for binding to the cyno CD46 at pH 6.0 and pH 7.4 for the conditionally active anti-CD46 antibodies are summarized in Table 2.
[…] Cover with sealing film and place the plate onto a plate shaker set to 50 rpm for 60 minutes at room temperature. [0351] 6) Decant plates and tap out residual liquid on a stack of paper towels. [0352] 7) Serially dilute test articles in 3-fold dilutions starting at 3000 ng/mL in pH 6.0 or pH 7.4 ELISA incubation buffer. [0353] 8) Add 100 μL/well of diluted test articles to the plates [0354] 9) Cover with sealing film and place the plates onto a plate shaker set to 50 rpm for 60 minutes at room temperature. […] 10) Decant plates and tap out residual liquid on a stack of paper towels. [0356] 11) Wash wells three times by dispensing 200 μL of pH 6.0 or pH 7.4 ELISA wash buffer to the wells and completely aspirate the contents. [0357] 12) Dilute the HRP secondary antibody at 1:2500 in pH 6.0 or pH 7.4 ELISA incubation buffer. [0358] 13) Add 100 μL HRP secondary antibody diluted in pH 6.0 or pH 7.4 ELISA incubation buffer to each well [0359] 14) Cover with sealing film and place the plates onto a plate shaker set to 50 rpm for 60 minutes at room temperature. [0360] 15) Decant plates and tap out residual liquid on a stack of paper towels. [0361] 16) Wash wells three times by dispensing 200 μL of pH 6.0 or pH 7.4 ELISA wash buffer to the wells and completely aspirate the contents. [0362] 17) Dispense 50 μL per well of the TMB substrate solution into all wells of the plates. Incubate at room temperature for about 2 minutes 15 seconds or 2 minutes. […] 18) Add 50 μL per well of 1N HCl into all wells of the plates. Read plates at 450 nm using PerkinElmer, EnSpire 2300 Multilabel Reader.

[3] = target: T1, cyno CD46 expressed on 293 cells; assay: FACS, 293 cells expressing cyno CD46, pH 7.4
Procedure: as §1

[4] = target: T3, cynoCD46-His (cynomolgus, UniProt A0A2K5WCL8 35-328); assay: SPR, cynoCD46-His immobilised, antibody as analyte, pH 6.5
T3 construct: extracellular domain; Immobilised by amine coupling on the SPR chip; not shown: His tag
T3 sequence: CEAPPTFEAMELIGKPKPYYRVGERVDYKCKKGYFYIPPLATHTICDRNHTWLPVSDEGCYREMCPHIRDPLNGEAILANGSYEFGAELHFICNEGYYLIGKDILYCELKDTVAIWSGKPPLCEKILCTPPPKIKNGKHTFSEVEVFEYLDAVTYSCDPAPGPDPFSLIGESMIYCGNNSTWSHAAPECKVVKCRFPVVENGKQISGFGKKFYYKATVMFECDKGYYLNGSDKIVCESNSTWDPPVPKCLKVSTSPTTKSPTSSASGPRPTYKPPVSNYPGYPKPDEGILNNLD
Procedure: (§2) Binding kinetics of anti-CD46 antibodies were measured by surface plasmon resonance on a SPR2/4 instrument (Sierra Sensors, Hamburg, Germany) and flat amine sensor chips. The SPR sensor contained four flow cells (FC1-FC4), each of which can be addressed individually or in groups. huCD46-His was immobilized in FC2, and cynoCD46-His was immobilized in FC4. No protein was immobilized in FC1 and FC3 which were used as control surfaces for FC2 and FC4, respectively.
(§3) All injections were done at a flow rate of 25 μL/min and 25° C. The sensor surface was activated with 1-ethyl-3-(3-dimethylaminopropyl)-carbodiimide (EDC) and N-hydroxysuccinimide (NHS) (200 mM/50 mM) for 480 seconds. Human CD46-His (2 μg/mL in 10 mM NaAc, pH5.0) was injected for 480s and the surface was inactivated by injecting 1M ethanolamine-HCl for 480s. cynoCD46-His was immobilized using the same conditions as described for huCD46-His, except that it was diluted into 10 mM NaAc buffer pH4.5. The control surface was activated and deactivated using the same conditions, but without injecting protein. PBST buffer (PBS pH7.4 with 0.05% TWEEN20™) was used as running buffer for the surface preparation. The running solution was switched to PBST with 30 mM sodium bicarbonate with the pH adjusted as indicated in the figures before the analyte injections. The instrument was equilibrated with the running solution for one hour before the first analyte injection.
(§4) The off-rate was measured for 360 s. The chip surface was regenerated after each cycle of interaction by injecting 6 μL of 10 mM glycine (pH 2.0). Flow cells 1 and 3 without immobilized protein were used as control surfaces for reference subtraction.

[5] = target: T1, cyno CD46 expressed on 293 cells; assay: FACS, 293 cells expressing cyno CD46, pH 6.0
Procedure: as §1

[6] = target: T4, huCD46-His (human, UniProt P15529 35-343); assay: SPR, huCD46-His immobilised, antibody as analyte, pH 7.4
T4 construct: extracellular domain; Immobilised by amine coupling on the SPR chip; It may be the same protein as the ELISA antigen; also called Human CD46-His; human CD46; not shown: His tag
T4 sequence (looked up): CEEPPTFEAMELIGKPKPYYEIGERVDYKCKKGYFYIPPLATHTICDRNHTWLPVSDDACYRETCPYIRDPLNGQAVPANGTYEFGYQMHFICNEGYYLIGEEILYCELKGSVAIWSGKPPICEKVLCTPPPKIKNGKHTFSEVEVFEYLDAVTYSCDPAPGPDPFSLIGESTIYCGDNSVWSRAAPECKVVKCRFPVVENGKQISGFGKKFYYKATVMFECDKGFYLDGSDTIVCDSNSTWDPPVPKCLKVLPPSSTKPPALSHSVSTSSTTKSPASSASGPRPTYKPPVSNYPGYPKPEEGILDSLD
Procedure: as §2, §3, §4

[7] = target: T4, huCD46-His; assay: SPR, huCD46-His immobilised, antibody as analyte, pH 6.5
Procedure: as §2, §3, §4

[8] = target: T3, cynoCD46-His; assay: SPR, cynoCD46-His immobilised, antibody as analyte, pH 7.4
Procedure: as §2, §3, §4

[9] = target: T3, cynoCD46-His; assay: SPR, cynoCD46-His immobilised, antibody as analyte, pH 6.0
Procedure: as §2, §3, §4

[10] = target: T4, huCD46-His; assay: SPR, huCD46-His immobilised, antibody as analyte, pH 6.0
Procedure: as §2, §3, §4

B1: BAP133-2-02-12 (antibody, V domains shown)
VH: EVQLVESGGGLVQPGGSLRLSCAASGGSVSSYDISWIRQSPSRGLEWLGVIWTDGGTNYNSAFMSRFTISRDDSKNTAYLQMNSLKTEDTAVYYCERVYDGYPWFAYWGQGTLVTVSS
VL: AIQLTQSPSSLSASVGDRVTITCRALQGISNYLNWYQQKPGKAPKLLIYYTSSLHSGVPSRFSGSGSGTEFTLTISSLQPDDFATYYCQQYIKLPWTFGQGTKVEIK
notes: also called BAP133-02-02-12; CPE hit BAP133-2-02-12
[1]
  Ratio (pH 7.4/6.0): 14.8
[2]
  ratio (ph 7.4/pH 6.0): 13.3
[3]
  EC50: 2.92 µg/mL
[4]
  Kd: 1.47 nM
  koff: 0.0017 s⁻¹
  kon: 1.16e+06 M⁻¹ s⁻¹
[5]
  EC50: 0.198 µg/mL
[6]
  Kd: 8.79 nM
  koff: 0.00225 s⁻¹
  kon: 256000 M⁻¹ s⁻¹
[7]
  Kd: 5.78 nM
  koff: 0.00282 s⁻¹
  kon: 488000 M⁻¹ s⁻¹
[8]
  Kd: 3.88 nM
  koff: 0.00192 s⁻¹
  kon: 495000 M⁻¹ s⁻¹
[9]
  Kd: 1.45 nM
  koff: 0.00184 s⁻¹
  kon: 1.27e+06 M⁻¹ s⁻¹
[10]
  Kd: 7.51 nM
  koff: 0.00404 s⁻¹
  kon: 539000 M⁻¹ s⁻¹
